Key:
ADAM17 [1] = assay: Soluble CD16b released from transfected HEK293 cells, ELISA of media supernatant (shedding); assay type: cell-based, human
Procedure: (§1) FIG. 3. Effects of the engineered S197P mutation on CD16a and CD16b shedding. Transfected HEK293 (human embryonic kidney) cells separately expressed CD16b and CD16b/S197P (A) or CD16a and CD16a/S197P (B) at similar levels, as determined by flow cytometry (left panels). The different transfectants were treated with or without PMA (15 ng/ml for 30 minutes at 37° C.) and soluble levels of CD16 in the media supernatant were quantified by ELISA (right panels). Each treatment condition was repeated three times for each experiment and the data are representative of three independent experiments. Bar graphs show mean±SD. Statistical significance is indicated as ***P<0.001. (C) Transfected HEK293 cells expressed L-selectin (CD62L) or L-selectin and CD16b/S197P. Surface levels of L-selectin and CD16b/S197P on transfected and mock-transfected cells were measured using flow cytometry (histogram plots). Transfectants expressing L-selectin or L-selectin and CD16b/S197P were incubated in the presence or absence of PMA for 30 minutes at 37° C., and the mean fluorescence intensity (MFI) of L-selectin staining determined (bar graph). Each treatment condition was repeated three times for each experiment and the data are representative of two independent experiments. Bar graphs show mean±SD. Statistical significance is indicated as *P<0.05. For all histogram plots, the x-axis=Log 10 fluorescence and the y-axis=cell number.
HEK293 cells (a human embryonic kidney cell line) and NK92 cells (a human NK cell line) (ATCC, Manassas, Va.) were cultured according to the depository's instructions. HEK293 cells were transiently transfected with pcDNA3.1 with or without CD16b, CD16b/S197P, and/or L-selectin using Lipofectamine 2000 (Invitrogen, Carlsbad, Calif.) according to the manufacturer's instructions. HEK293 cells stably expressing human FcRγ were transiently transfected with pcDNA3.1 with or without CD16a or CD16a/S197P by the same approach. NK92 cells were stably transduced with pBMN-IRES-EGFP with or without CD16a or CD16a/S197P by retrovirus generation and infection procedures described previously (Matala et al., 2001, J Immunol. 167:1617-1623; Walcheck et al., 2003, J Leukoc Biol. 74:389-394; Wang et al., 2009, J Immunol. 182:2449-2457). Construct expression was assessed by EGFP fluorescence and CD16 staining, as determined by flow cytometry. Human iPSCs (UCBiPS7, derived from umbilical cord blood CD34 cells) were maintained on mouse embryonic fibroblasts (Knorr et al., 2013, Stem Cells Transl Med. 2:274-283; Ni et al., 2014, Stem Cells 32:1021-1031). Stable expression of CD16a or CD16a/S197P was performed using a Sleeping Beauty transposon system as previously described (Wilber et al., 2007, Stem Cells 25:2919-2927; Tian et al., 2009, Stem Cells 27:2675-2685). […]

ADAM17 [2] = assay: L-selectin surface down-regulation in HEK293 transfectants expressing or lacking CD16b/S197P (ADAM17 activity control); assay type: cell-based, human; settings: HEK293 cells expressing versus lacking CD16b/S197P; PMA 30 minutes at 37° C.
Procedure: as §1, with “(C) Transfected HEK293 cells expressed L-selectin (CD62L) or L-selectin and CD16b/S197P.” left out, “Each treatment condition was repeated three times for each experiment and the data are representative of two independent experiments. Bar graphs show mean±SD. Statistical significance is indicated as *P<0.05.” left out
HEK293 cells (a human embryonic kidney cell line) and NK92 cells (a human NK cell line) (ATCC, Manassas, Va.) were cultured according to the depository's instructions. […] Construct expression was assessed by EGFP fluorescence and CD16 staining, as determined by flow cytometry. […]

[3] = HEK293 transfectants treated with PMA 15 ng/ml for 30 minutes at 37° C.
[4] = untreated transfected HEK293 cells

| Molecule | soluble levels of CD16 in media supernatant (ADAM17 [1]; [3]) | soluble levels of CD16 in media supernatant (ADAM17 [1]; [4]) | L-selectin down-regulation following activation with PMA (ADAM17 [2]) |
| --- | --- | --- | --- |
| CD16b: Wild-type human IgG Fc receptor CD16b (FcγRIIIb), NA1 allelic variant, recombinant comparator (protein, listed as Homo sapiens) MWQLLLPTALLLLVSAGMRTEDLPKAVVFLEPQWYRVLEKDSVTLKCQGAYSPEDNSTQWFHNENLISSQASSYFIDAATVDDSGEYRCQTNLSTLSDPVQLEVHVGWLLLQAPRWVFKEEDPIHLRCHSWKNTALHKVTYLQNGKDRKYFHHNSDFHIPKATLKDSGSYFCRGLVGSKNVSSETVNITITQGLAVSTISSFS | increased further | High levels |  |
| CD16b/S197P: Human CD16b (FcγRIIIb, SEQ ID NO:2, NA1 variant) with serine-197 substituted by proline; expressed in HEK293 cells (protein, listed as Homo sapiens) MWQLLLPTALLLLVSAGMRTEDLPKAVVFLEPQWYRVLEKDSVTLKCQGAYSPEDNSTQWFHNENLISSQASSYFIDAATVDDSGEYRCQTNLSTLSDPVQLEVHVGWLLLQAPRWVFKEEDPIHLRCHSWKNTALHKVTYLQNGKDRKYFHHNSDFHIPKATLKDSGSYFCRGLVGSKNVSSETVNITITQGLAVPTISSFS | markedly lower | markedly lower | similarly down-regulated |
